Consider one molecule from PMC2199365.

The target of the test is nascent 77FtsQTAG27 (E. coli) (UniProt P06136). The test is described as follows: cross-linking.
Sequence of UniProt P06136 (P06136 1-77): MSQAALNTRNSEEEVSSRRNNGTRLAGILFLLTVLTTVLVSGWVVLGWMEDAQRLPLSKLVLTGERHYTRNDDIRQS

B1: purified signal recognition particle (SRP: Ffh and 4.5S RNA) (complex)
chain: MFDNLTDRLSRTLRNISGRGRLTEDNVKDTLREVRMALLEADVALPVVREFINRVKEKAVGHEVNKSLTPGQEFVKIVRNELVAAMGEENQTLNLAAQPPAVVLMAGLQGAGKTTSVGKLGKFLREKHKKKVLVVSADVYRPAAIKQLETLAEQVGVDFFPSDVGQKPVDIVNAALKEAKLKFYDVLLVDTAGRLHVDEAMMDEIKQVHASINPVETLFVVDAMTGQDAANTAKAFNEALPLTGVVLTKVDGDARGGAALSIRHITGKPIKFLGVGEKTEALEPFHPDRIASRILGMGDVLSLIEDIESKVDRAQAEKLASKLKKGDGFDLNDFLEQLRQMKNMGGMASLMGKLPGMGQIPDNVKSQMDDKVLVRMEAIINSMTMKERAKPEIIKGSRKRRIAAGCGMQVQDVNRLLKQFDDMQRMMKKMKKGGMAKMMRSMKGMMPPGFPGR
B1 came in with a concentration of SRP at which cross-linking saturated of 0.3 µM.
